The target of assay [1] is T1, bio-LAG3-mFc (human, UniProt P18627 23-450, biotin-labelled).
T1 construct: also called hLAG-3
T1 sequence (looked up): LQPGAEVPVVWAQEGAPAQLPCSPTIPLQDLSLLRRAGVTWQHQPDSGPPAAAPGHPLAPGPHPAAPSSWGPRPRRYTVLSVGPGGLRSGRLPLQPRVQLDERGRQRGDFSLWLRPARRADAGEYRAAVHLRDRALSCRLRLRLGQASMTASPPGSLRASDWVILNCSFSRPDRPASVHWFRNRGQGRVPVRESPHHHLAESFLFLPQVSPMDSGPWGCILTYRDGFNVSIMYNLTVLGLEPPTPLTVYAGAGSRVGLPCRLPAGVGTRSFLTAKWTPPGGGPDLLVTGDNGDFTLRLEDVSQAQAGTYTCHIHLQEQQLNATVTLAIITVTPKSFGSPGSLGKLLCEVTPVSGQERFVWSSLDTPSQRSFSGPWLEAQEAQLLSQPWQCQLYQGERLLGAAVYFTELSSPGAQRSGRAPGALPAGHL
The experiment in a line: blocking ELISA, LAG-3 on Daudi cells. For orientation: ELISA stands for enzyme-linked immunosorbent assay.

Assay [2] has as its target T2, human LAG-3-his (human, UniProt P18627 23-422).
T2 construct: range 23-422; also called hLAG-3-his; hLAG-3
T2 sequence: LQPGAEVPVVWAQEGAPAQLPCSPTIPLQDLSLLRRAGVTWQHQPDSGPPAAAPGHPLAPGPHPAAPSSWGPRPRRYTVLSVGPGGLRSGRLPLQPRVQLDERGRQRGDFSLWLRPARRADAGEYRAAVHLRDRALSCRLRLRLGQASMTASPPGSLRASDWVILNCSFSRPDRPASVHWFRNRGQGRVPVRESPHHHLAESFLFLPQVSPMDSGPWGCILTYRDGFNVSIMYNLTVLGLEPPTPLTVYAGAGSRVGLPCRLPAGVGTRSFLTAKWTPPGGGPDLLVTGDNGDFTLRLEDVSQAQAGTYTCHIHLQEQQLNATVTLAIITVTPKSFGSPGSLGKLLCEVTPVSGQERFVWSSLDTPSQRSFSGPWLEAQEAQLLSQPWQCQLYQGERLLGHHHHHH
The experiment in a line: ELISA on coated human LAG-3, OD450 (Example 3, Example 13) [panel a].

Assay [3] has as its target T2, human LAG-3-his. The assay is described as above. This is another data set of the same source.
Assay [4] deals with T1, bio-LAG3-mFc. The experiment in a line: blocking of LAG3 binding to Daudi cells, same experiment. The method, then: The Daudi cell line (ATCC, CCL-213) was expanded and seeded into 96-well microplate at a density of 2×10⁵ cells/well, and then centrifuged at 1600 rpm for 10 min; thereafter the cells were fixed with 100 μl/well of a fixative solution for immunostaining (Shanghai Beyotime Biotechnology Co., Ltd., Cat. No.: P0098) for half an hour at room temperature. After washing with PBS (BasalMedia Biology, Cat. No.: B320) once, 5% milk was added with 230 μl per well, and the microplate was incubated for 2 hours at 37° C. for blocking, then was washed three times with PBST. […] The microplate was then incubated for 1 hour at 37° C. and washed 5 times with PBST. 50 μl/well of 1:1000 diluted streptavidin-HRP secondary antibody (GenScript, Cat. No.: M00091) was added to the microplate and incubated for 1 hour at 37° C. After washing the microplate 5 times with PBST, 50 μl/well TMB (Surmodic, Cat. No.: TTMB-1000-01) was added to the microplate for color development, and 50 μl/well 1M H₂SO₄ was added to stop the reaction. The microplate was then read by a microplate reader (MuitiskanGo Thermo, model 511919200), and the data were analyzed using GraphPad prism 5.

Assay [5] deals with T2, human LAG-3-his. The experiment in a line: ELISA on coated human LAG-3, OD450 (Example 3, Example 13) [panel a]. The source holds these as a separate data set.

Several values for one entry are separate records, joined by “and”; a condition that tells them apart may be missing. Identical values can stand only once. Like-named read-outs stand apart in the source and are kept apart here.

B1: humanized anti-human LAG-3 antibody Ab2317 (antibody, human IgG4 S228P, kappa, V domains shown)
VH: QVQLVQSGAEVKKPGASVKVSCKASGYTFTDYEMHWVKQAPGQGLEWIGGIDPETEGIAYNQKFRGRATLTADKSTSTAYMELRSLRSDDTAVYYCTNSNYYGGREAWFAYWGQGTLVTVSS
VL: DIQMTQSPSSLSASVGDRVTITCRASQDIGSSLNWYQQKPGKAPKRLIYATSSLDSGVPSRFSGSRSGSDFTLTISSLQPEDFATYYCLQYVTSPLTFGGGTKVEIKR
notes: LG2317 / LG2343, human kappa / hIgG4
For the molecule B1, the “fold stronger blocking activity than Ref” value in assay [1] is ≥ 2 times. Further, the concentration for a half-maximal effect (EC50 (read off the curve)) in assay [2], in assay [3] and in assay [5] was ~0.3 nM in each case. The IC50 in assay [4] is 9.78 nM and 28 nM.

By EC50 (read off the curve) is commonly meant the midpoint of the concentration-response curve. For orientation: IC50 means the concentration at which inhibition is half-maximal. Low readings indicate greater potency in that assay, high ones weaker potency in that assay.

For the origin of these results see patent US20220340657A1 (L AND L BIO CO LTD NINGBO CHINA, published 2022).
